From publication PMC5031971

Molecular target: T1, CCR7 (human) (UniProt P32248)
T1 sequence: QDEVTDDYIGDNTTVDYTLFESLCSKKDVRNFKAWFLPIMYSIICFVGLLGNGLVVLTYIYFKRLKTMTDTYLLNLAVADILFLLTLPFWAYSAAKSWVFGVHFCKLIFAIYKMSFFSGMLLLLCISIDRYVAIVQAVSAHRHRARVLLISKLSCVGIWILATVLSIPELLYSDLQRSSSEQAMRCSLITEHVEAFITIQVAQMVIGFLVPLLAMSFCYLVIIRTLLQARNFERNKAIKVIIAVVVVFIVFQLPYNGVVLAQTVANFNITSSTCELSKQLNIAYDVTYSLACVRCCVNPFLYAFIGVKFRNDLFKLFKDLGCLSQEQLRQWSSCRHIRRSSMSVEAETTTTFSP
Assay: flow cytometry, live cells
Details: H9 cells (CCR7 positive), Cy3-RNA; 2'-F C and 2'-F U (all pyrimidines); Flow cytometry: 2.5e5 cells in 100 uL binding buffer, 30 min, room temperature; refolding/washing buffer DPBS pH 7.0-7.4, 1 mM CaCl2, 1 mM MgCl2, 2.7 mM KCl …

| Sequence | Kd [nM] |
| --- | --- |
| GGGAGGACGAUGCGGAAUUCGUCAAAGUCGUUUAUUUCGUCUGUGCAGACGACUCGCCCGA [C-2A] | 65.2 |
| GGGAGGACGAUGCGGUGCCGCACAUUAGUCUCUGGUUGCCCACGCCAGACGACUCGCCCGA [DD9-9] | 111 |
